# Data reported in publication PMC5340921.
# T1: PPR10 (maize, UniProt B8Y6I0 38-786)
# T1 sequence: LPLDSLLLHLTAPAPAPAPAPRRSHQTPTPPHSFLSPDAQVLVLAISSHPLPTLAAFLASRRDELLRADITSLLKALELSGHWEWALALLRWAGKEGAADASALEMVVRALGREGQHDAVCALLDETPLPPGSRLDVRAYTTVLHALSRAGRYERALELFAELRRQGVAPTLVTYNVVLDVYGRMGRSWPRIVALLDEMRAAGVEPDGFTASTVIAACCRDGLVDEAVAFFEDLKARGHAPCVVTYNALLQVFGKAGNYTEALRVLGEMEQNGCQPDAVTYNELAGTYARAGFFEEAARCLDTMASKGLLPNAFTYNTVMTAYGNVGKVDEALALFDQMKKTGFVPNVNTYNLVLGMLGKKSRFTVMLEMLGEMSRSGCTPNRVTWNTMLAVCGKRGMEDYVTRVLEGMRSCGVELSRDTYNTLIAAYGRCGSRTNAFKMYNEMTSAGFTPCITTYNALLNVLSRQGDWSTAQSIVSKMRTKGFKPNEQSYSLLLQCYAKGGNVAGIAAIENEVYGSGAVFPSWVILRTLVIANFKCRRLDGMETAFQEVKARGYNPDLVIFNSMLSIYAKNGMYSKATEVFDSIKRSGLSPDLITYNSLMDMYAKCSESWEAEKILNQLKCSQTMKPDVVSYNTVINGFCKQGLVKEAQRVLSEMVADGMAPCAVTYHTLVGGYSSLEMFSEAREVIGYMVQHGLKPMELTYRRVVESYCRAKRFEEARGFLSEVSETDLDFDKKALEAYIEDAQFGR
# B1: atpH WT 17-mer (ssRNA)
# RNA: GUAUCCUUAACCAUUUC
# Molecular target: T1, PPR10
# Assay: EMSA
binder,measurement,value
B1,binding result,binds
